In PMC12582567, “Short heat shock factor A2 regulates heat resistance and growth balance in Arabidopsis”:

B1: 3xHRE probe (dsDNA)
DNA 1: GAAGAAGGAAGAAGGAAGAAG
DNA 2: CTTCTTCCTTCTTCCTTCTTC
B2: HSE probe (dsDNA)
DNA 1: TCGACTTCTAGAAGCTTCCAGAAATTAG
DNA 2: CTAATTTCTGGAAGCTTCTAGAAGTCGA

Experiments:
[1] = target: His6-tDBD (Arabidopsis thaliana Col-0, UniProt J7G1E7 42-103); assay: EMSA; EMSA: LightShift kit 1x binding buffer, 50 ng poly(dI-dC), 2.5% glycerol, 0.05% NP-40, 5 mM MgCl2, 100 ng protein, 1.5 ng probe, 30 min, room temperature; pull-down: 50 mM Tris-HCl pH 7.5, 100 mM NaCl, 0.1% Triton X-100, poly(dI-dC), 25 C; settings: protein: recombinant; tags: His6 (pET-28a); label: 5' biotin; blunt
[2] = target: His6-S-HsfB2a (Arabidopsis thaliana Col-0, UniProt J7G5V7 1-85); assay: as above; settings: protein: recombinant; tags: His6 (pET-28a); label: 5' biotin; blunt
[3] = target: His6-S-HsfA4c (Arabidopsis thaliana Col-0, UniProt J7FXE8 1-102); assay: as above; settings: protein: recombinant; tags: His6 (pET-28a); label: 5' biotin; blunt
[4] = target: His6-S-HsfB1 (Arabidopsis thaliana Col-0, UniProt J7FYU6 1-86); assay: as above; settings: protein: recombinant; tags: His6 (pET-28a); label: 5' biotin; blunt
[5] = target: T1, His6-HsfA2 (Arabidopsis thaliana Col-0, UniProt O80982 1-345); assay: as above; settings: protein: recombinant; tags: His6 (pET-28a); chain copies: 3; label: 5' biotin; blunt
[6] = target: T1, His6-HsfA2; assay: streptavidin-agarose pull-down; 0 hr prebinding control; EMSA: LightShift kit 1x binding buffer, 50 ng poly(dI-dC), 2.5% glycerol, 0.05% NP-40, 5 mM MgCl2, 100 ng protein, 1.5 ng probe, 30 min, room temperature; pull-down: 50 mM Tris-HCl pH 7.5, 100 mM NaCl, 0.1% Triton X-100, poly(dI-dC), 25 C; settings: protein: recombinant; tags: His6 (pET-28a); chain copies: 3; label: 5' biotin; blunt
[7] = target: His6-DBD (Arabidopsis thaliana Col-0, UniProt O80982 42-135); assay: EMSA; EMSA: LightShift kit 1x binding buffer, 50 ng poly(dI-dC), 2.5% glycerol, 0.05% NP-40, 5 mM MgCl2, 100 ng protein, 1.5 ng probe, 30 min, room temperature; pull-down: 50 mM Tris-HCl pH 7.5, 100 mM NaCl, 0.1% Triton X-100, poly(dI-dC), 25 C; settings: protein: recombinant; tags: His6 (pET-28a); label: 5' biotin; blunt
Chain of His6-DBD (O80982 42-135): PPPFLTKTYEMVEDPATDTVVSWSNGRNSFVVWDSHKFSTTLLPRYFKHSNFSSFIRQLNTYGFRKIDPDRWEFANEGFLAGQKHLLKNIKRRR

T1 sequence (O80982 whole entry): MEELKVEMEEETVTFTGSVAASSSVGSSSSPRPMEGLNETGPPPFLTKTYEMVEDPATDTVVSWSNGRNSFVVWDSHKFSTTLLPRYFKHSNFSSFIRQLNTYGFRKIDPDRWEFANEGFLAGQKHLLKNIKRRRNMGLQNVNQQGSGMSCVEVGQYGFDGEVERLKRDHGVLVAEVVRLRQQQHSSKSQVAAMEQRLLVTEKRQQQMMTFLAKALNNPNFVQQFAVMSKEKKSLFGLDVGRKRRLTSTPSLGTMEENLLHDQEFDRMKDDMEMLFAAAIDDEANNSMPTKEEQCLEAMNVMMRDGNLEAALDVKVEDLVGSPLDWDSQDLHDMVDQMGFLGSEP
Chain of His6-S-HsfB2a (J7G5V7 entry or part of it): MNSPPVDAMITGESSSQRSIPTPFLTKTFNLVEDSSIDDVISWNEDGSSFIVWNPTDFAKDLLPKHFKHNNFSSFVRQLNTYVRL
Chain of His6-S-HsfA4c (J7FXE8 entry or part of it): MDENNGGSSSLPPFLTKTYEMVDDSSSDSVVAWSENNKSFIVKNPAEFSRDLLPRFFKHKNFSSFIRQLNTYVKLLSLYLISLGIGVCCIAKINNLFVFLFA
Chain of His6-S-HsfB1 (J7FYU6 entry or part of it): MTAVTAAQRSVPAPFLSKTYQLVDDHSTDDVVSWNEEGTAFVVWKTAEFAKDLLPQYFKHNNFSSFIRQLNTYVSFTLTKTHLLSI
Chain of His6-tDBD (J7G1E7 entry or part of it): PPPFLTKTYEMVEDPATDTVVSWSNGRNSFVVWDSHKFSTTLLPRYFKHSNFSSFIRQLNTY

Binder	binding result [1]	binding result [2]	binding result [3]	binding result [4]	binding result [5]	binding result [6]	binding result [7]
B1	binds	no binding	binds	binds	no binding		
B2						binds	binds
